Results taken from paper PMC5994897.

Columns and labels:
[1] = molecular target: yeast αβ-tubulin (wild type) (yeast (overexpressed in S. cerevisiae)) (UniProt P09733); test: AUC
[2] = molecular target: Yeast tubulin with a C-terminal … tag, ReAsH-labeled (yeast (overexpressed in S. cerevisiae)) (UniProt P09733); test: TIRF microscopy microtubule-binding titration

Molecule	Kd [1] [µM]	Kd [2] [µM]
Stu1-TOG2 (305-567) (from UniProt P38198 305-567) (domain or fragment)	1.68	–
Alexa-488-labeled Stu1-TOG1 with a KCK tag (domain or fragment, Alexa-488 label) NSNTNTHPDDSFPLYTVFKDESVPIEEKMALLTRFKGHVKKELVNESSIQAYFAALLFISGHYAYRSYPRLIFLSHSSLCYLIKRVAMQSPVQFNDTLVEQLLNHLIFELPNEKKFWLASIKAIEAIYLVNPSKIQAILANFLRRPSENQNGDYLNRIKSTLLTIDELIQINEKNNSNHLQLLRFFMLSFTNLLNNNLNEHANDDNNNVIIELIFDIMYKYLKMDDENSQDLIDGFINDLEVEKFKQKFISLAKSQDQHGSQEDKS	–	40
Alexa-488-labeled Stu1-TOG2 with a KCK tag (domain or fragment, Alexa-488 label) DPAMKKNYESLNQLQQDLENLLAPFQSVKETEQNWKLRQSNIIELDNIISGNIPKDNPEEFVTVIKEVQLIELISRATSSLRTTLSLTALLFLKRLIHILNDQLPLSILDQIFVIFKNLLSSTKKISSQTAFHCLITLIIDINHFHNKLFQLSFLLINEKTVTPRFCSAILLRSFLIKFNDSNLSLNNSNTTSPTSKLENNIIYIEEWLKKGISDSQTTVREAMRLTFWYFYKCYPTNAKRLLSSSFSPQLKKATELAIPAHL	–	12
